According to article PMC4377555, “A novel PKD2L1 C-terminal domain critical for trimerization and channel function” (Scientific Reports, 2015):
Several values for one entry are separate records, joined by “and”; a condition that tells them apart may be missing. Identical values can stand only once.

B1: human PKD2L1 over-expressed from pcDNA3.1(+) (natural protein, UniProt Q9P0L9-1 1-805, looked up)
chain: MNAVGSPEGQELQKLGSGAWDNPAYSGPPSPHGTLRVCTISSTGPLQPQPKKPEDEPQETAYRTQVSSCCLHICQGIRGLWGTTLTENTAENRELYIKTTLRELLVYIVFLVDICLLTYGMTSSSAYYYTKVMSELFLHTPSDTGVSFQAISSMADFWDFAQGPLLDSLYWTKWYNNQSLGHGSHSFIYYENMLLGVPRLRQLKVRNDSCVVHEDFREDILSCYDVYSPDKEEQLPFGPFNGTAWTYHSQDELGGFSHWGRLTSYSGGGYYLDLPGSRQGSAEALRALQEGLWLDRGTRVVFIDFSVYNANINLFCVLRLVVEFPATGGAIPSWQIRTVKLIRYVSNWDFFIVGCEVIFCVFIFYYVVEEILELHIHRLRYLSSIWNILDLVVILLSIVAVGFHIFRTLEVNRLMGKLLQQPNTYADFEFLAFWQTQYNNMNAVNLFFAWIKIFKYISFNKTMTQLSSTLARCAKDILGFAVMFFIVFFAYAQLGYLLFGTQVENFSTFIKCIFTQFRIILGDFDYNAIDNANRILGPAYFVTYVFFVFFVLLNMFLAIINDTYSEVKEELAGQKDELQLSDLLKQGYNKTLLRLRLRKERVSDVQKVLQGGEQEIQFEDFTNTLRELGHAEHEITELTATFTKFDRDGNRILDEKEQEKMRQDLEEERVALNTEIEKLGRSIVSSPQGKSGPEAARAGGWVSGEEFYMLTRRVLQLETVLEGVVSQIDAVGSKLKMLERKGWLAPSPGVKEQAIWKHPQPAPAVTPDPWGVQGGQESEVPYKREEEALEERRLSRGEIPTLQRS
notes: PKD2L1, human, full-length cDNA in pcDNA3.1(+), no tag named for this experiment; also called TRPP3; source: HEK293T and HeLa cells, transfected, in lysate
B2: Flag-tagged human PKD2L1 WT (natural protein, UniProt Q9P0L9-1 1-805, looked up)
chain: B1 chain
notes: PKD2L1, human, full-length cDNA in pcDNA3.1(+), Flag inserted 5' of the coding region; also called Flag-PKD2L1; source: HeLa cells, transfected, in lysate; not shown: Flag, N-terminal, kept
B3: GFP-C1 (GFP fused to PKD2L1 C1, K575-T622) (domain or fragment, human, UniProt Q9P0L9-1 575-622, looked up)
chain: KDELQLSDLLKQGYNKTLLRLRLRKERVSDVQKVLQGGEQEIQFEDFT
notes: PKD2L1, human, domain C1 K575-T622 (48 amino acids), in pET28a(+) with an upstream GFP gene; source: E. coli BL21 (DE3), purified (Ni-NTA); not shown: GFP, N-terminal, kept
B4: Flag-tagged PKD2L1 ΔNT (deletion of M1-Y96) (domain or fragment, human, UniProt Q9P0L9-1 97-805, looked up)
chain: IKTTLRELLVYIVFLVDICLLTYGMTSSSAYYYTKVMSELFLHTPSDTGVSFQAISSMADFWDFAQGPLLDSLYWTKWYNNQSLGHGSHSFIYYENMLLGVPRLRQLKVRNDSCVVHEDFREDILSCYDVYSPDKEEQLPFGPFNGTAWTYHSQDELGGFSHWGRLTSYSGGGYYLDLPGSRQGSAEALRALQEGLWLDRGTRVVFIDFSVYNANINLFCVLRLVVEFPATGGAIPSWQIRTVKLIRYVSNWDFFIVGCEVIFCVFIFYYVVEEILELHIHRLRYLSSIWNILDLVVILLSIVAVGFHIFRTLEVNRLMGKLLQQPNTYADFEFLAFWQTQYNNMNAVNLFFAWIKIFKYISFNKTMTQLSSTLARCAKDILGFAVMFFIVFFAYAQLGYLLFGTQVENFSTFIKCIFTQFRIILGDFDYNAIDNANRILGPAYFVTYVFFVFFVLLNMFLAIINDTYSEVKEELAGQKDELQLSDLLKQGYNKTLLRLRLRKERVSDVQKVLQGGEQEIQFEDFTNTLRELGHAEHEITELTATFTKFDRDGNRILDEKEQEKMRQDLEEERVALNTEIEKLGRSIVSSPQGKSGPEAARAGGWVSGEEFYMLTRRVLQLETVLEGVVSQIDAVGSKLKMLERKGWLAPSPGVKEQAIWKHPQPAPAVTPDPWGVQGGQESEVPYKREEEALEERRLSRGEIPTLQRS
notes: PKD2L1, human, deletion of the N-terminus M1-Y96; also called Flag-ΔNT; Ctrl (ΔNT); source: HeLa or HEK cells, transfected, in lysate; not shown: Flag, N-terminal, kept
B5: purified PKD2L1 C-terminus (CT, E566-S805) (domain or fragment, human, UniProt Q9P0L9-1 566-805, looked up)
chain: EVKEELAGQKDELQLSDLLKQGYNKTLLRLRLRKERVSDVQKVLQGGEQEIQFEDFTNTLRELGHAEHEITELTATFTKFDRDGNRILDEKEQEKMRQDLEEERVALNTEIEKLGRSIVSSPQGKSGPEAARAGGWVSGEEFYMLTRRVLQLETVLEGVVSQIDAVGSKLKMLERKGWLAPSPGVKEQAIWKHPQPAPAVTPDPWGVQGGQESEVPYKREEEALEERRLSRGEIPTLQRS
notes: PKD2L1, human, C-terminus E566-S805; the methods describe only GFP-C1 in pET28a(+) and Ni-NTA; the DLS buffer holds 250 mM imidazole; source: E. coli, purified
B6: Flag-tagged PKD2L1 ΔNT/T622X (M1-Y96 and T622-S805 double deletion) (domain or fragment, human, UniProt Q9P0L9-1 97-621, looked up)
chain: IKTTLRELLVYIVFLVDICLLTYGMTSSSAYYYTKVMSELFLHTPSDTGVSFQAISSMADFWDFAQGPLLDSLYWTKWYNNQSLGHGSHSFIYYENMLLGVPRLRQLKVRNDSCVVHEDFREDILSCYDVYSPDKEEQLPFGPFNGTAWTYHSQDELGGFSHWGRLTSYSGGGYYLDLPGSRQGSAEALRALQEGLWLDRGTRVVFIDFSVYNANINLFCVLRLVVEFPATGGAIPSWQIRTVKLIRYVSNWDFFIVGCEVIFCVFIFYYVVEEILELHIHRLRYLSSIWNILDLVVILLSIVAVGFHIFRTLEVNRLMGKLLQQPNTYADFEFLAFWQTQYNNMNAVNLFFAWIKIFKYISFNKTMTQLSSTLARCAKDILGFAVMFFIVFFAYAQLGYLLFGTQVENFSTFIKCIFTQFRIILGDFDYNAIDNANRILGPAYFVTYVFFVFFVLLNMFLAIINDTYSEVKEELAGQKDELQLSDLLKQGYNKTLLRLRLRKERVSDVQKVLQGGEQEIQFEDF
notes: PKD2L1, human, M1-Y96 and T622-S805 deleted; source: HeLa cells, transfected, in lysate; not shown: Flag, N-terminal, kept

How the values were obtained:
[1] = target: the molecule itself; experiment: non-reducing SDS-PAGE with Western blot; lysates of transfected HEK or HeLa cells, SDS loading buffer without reducing reagents, on ice 5 min, 8% gel; some samples also under reducing condition or with 10 mM NEM in the lysis buffer
[2] = target: the molecule itself; experiment: native gel or EMSA; BN-PAGE with Western blot of HeLa cell lysates (NativePAGE Sample Prep Kit, Coomassie G-250, 3-12% BisTris gels), non-denaturing
[3] = target: the molecule itself; experiment: native gel or EMSA; BN-PAGE of purified GFP fusion proteins, Coomassie blue staining
[4] = target: the molecule itself; experiment: dynamic light scattering; Malvern Zetasizer Nano ZS, 25°C; 50 mM NaH2PO4, 300 mM NaCl, 250 mM imidazole, pH 8.0; 0.4 mg/ml; oligomeric state from the apparent hydrodynamic diameter

Protein	stoichiometry N [1]	stoichiometry N [2]	also measured
B1	2 and 3 and 4	–	–
B2	–	3 and 2	–
B3	–	–	stoichiometry N [3]: 3
B4	–	3	–
B5	–	–	stoichiometry N [4]: 3
B6	3	–	–
